Laboratory results as given in patent US11319551B2, “Methods and compositions for PPO herbicide tolerance in plants” (Monsanto Technology LLC, priority 2015, dated 2022).
Positions count from the first letter of the chain named. Where two headings read alike, the source gives them in different places.

How the values were obtained:
[1] = PPO enzyme assay, apparent Km for substrate; type: biochemical; settings: substrate protoporphyrinogen
[2] = system: hemG knockout E. coli strain; type: cell-based
[3] = system: transgenic soybean plants; assay: S-3100 tolerance of transformed soybean plantlets at five weeks; type: in vivo; set-up: key to Tolerance score to S-3100 at 5 weeks: 0 for poor tolerance, high damage, low green coloration; 1 for some tolerance, average damage, moderate green coloration; 2 for good tolerance, low damage, high green coloration; settings: for tolerance to the PPO herbicide in high-throughput screening at five weeks: S-3100, over the constructs with different transit peptides; for Tolerance score to S-3100 at 5 weeks: day four post application
Protocol: (§1) The microbial HemY PPO enzymes were expressed in transgenic soybean plants, and the transgenic plants were analyzed for PPO herbicide tolerance. […] For plant transformation, the nucleotide sequences encoding the HemY PPO enzymes were codon optimized for dicot expression. This permitted the side-by-side comparison of the seven different HemY PPO enzymes with thirty-nine different targeting peptides using the same promoter and 3′UTR elements for gene expression
(§2) The plant transformation constructs were used to transform soybean excised embryos (germplasm A3555) using A. tumefaciens and standard methods known in the art. Four hundred explants were inoculated for each construct resulting in twelve containers per construct. A sterile PPO herbicide solution was used for herbicide tolerance testing. The herbicide solution consisted of 0.3 g of S-3100 in crop oil concentrate (5.0 mL) and 495 mL of deionized water. This was filtered through a 0.45 micron Nalgene® Rapid-Flow™ Tissue Culture Filter Unit and Surfactant-Free Cellulose Acetate membrane filter unit (VWR, Radnor, Pa., USA). The resulting sterile solution was shaken before application.
At five weeks post-transformation, four of the twelve plant containers per construct were sprayed with two passes of the sterile PPO herbicide solution. The treated plantlets were then enclosed in the container and received at least 15 hours of light exposure post spray each day for four days. At the end of day four post application of S-3100, the treated plantlets were photographed and scored on a visual scale of green coloration (green coloration was representative of healthy photosynthetic plant tissue as compared to photo-bleached tissue) versus damage. The scoring values were 0 for poor tolerance, high damage, low green coloration; 1 for some tolerance, average damage, moderate green coloration; and 2 for good tolerance, low damage, high green coloration. The results of herbicide application of S-3100 at five weeks is presented in Table 5, where n.d. indicates the analysis was not conducted.

[4] = system: transgenic soybean plants; assay: S-3100 herbicide injury of R0 transgenic soybean plants at eleven weeks; type: in vivo; settings: for tolerance to the PPO herbicide, R0 plants at eleven weeks: S-3100, injury rating compared with non-transgenic control (30% or above); for Tolerance score to S-3100 at 11 weeks (herbicide injury rating): R0 plants, seven days after treatment
Protocol: as §1, §2
Plants in the non-sprayed containers corresponding to constructs having a high passing score of 2 and a few fails as negative controls were transplanted at approximately 7 weeks post transformation. The R0 plants were grown in a greenhouse under long-day nursery conditions (18 hr light at 80° F. then 6 hr dark at 74° F.) for approximately four weeks. At eleven weeks, the R0 plants were sprayed with two passes of the same herbicide solution (0.3 g of S-3100) described above. Herbicide injury ratings were collected seven days after treatment. Any injury rating of 30% or above was equivalent to non-transgenic soybean injury ratings. The results of the herbicide tolerance application at eleven weeks to the R0 plants are presented in Table 6, where n.d. indicates the analysis was not conducted.

[5] = acifluorfen, flumioxazin, lactofen, or fomesafen, saturating amount

B1: E. coli HemG: E. coli PPO enzyme HemG (protoporphyrinogen IX dehydrogenase; GenBank Accession No. WP_021498199), SEQ ID NO:76 (protein, listed as Escherichia coli)
chain: MKTLILFSTRDGQTREIASYLASELKELGIQADVANVHRIEEPQWENYDRVVIGASIRYGHYHSAFQEFVKKHATRLNSMPSAFYSVNLVARKPEKRTPQTNSYARKFLMNSQWRPDRCAVIAGALRYPRYRWYDRFMIKLIMKMSGGETDTRKEVVYTDWEQVANFAREIAHLTDKPTLK
Km [1]: 1.6 µM
growth rate of hemG knockout E. coli strain in presence of PPO herbicide [2, 5]: normal growth rates

B2: R2N70: microbial HemY protoporphyrinogen oxidase, SEQ ID NO:3 (protein, listed as Bacillus subtilis)
chain: MSDGKKHVVIIGGGITGLAAAFYMEKEIKEKNLPLELTLVEASPRVGGKIQTVKKDGYIIERGPDSFLERKKSAPQLVKDLGLEHLLVNNATGQSYVLVNRTLHPMPKGAVMGIPTKIAPFVSTGLFSLSGKARAAMDFILPASKTKDDQSLGEFFRRRVGDEVVENLIEPLLSGIYAGDIDKLSLMSTFPQFYQTEQKHRSLILGMKKTRPQGSGQQLTAKKQGQFQTLSTGLQTLVEEIEKQLKLTKVYKGTKVTKLSHSGSGYSLELDNGVTLDADSVIVTAPHKAAAGMLSELPAISHLKNMHSTSVANVALGFPEGSVQMEHEGTGFVISRNSDFAITACTWTNKKWPHAAPEGKTLLRAYVGKAGDESIVDLSDNDIINIVLEDLKKVMNINGEPEMTCVTRWHESMPQYHVGHKQRIKELREALASAYPGVYMTGASFEGVGIPDCIDQGKAAVSDALTYLFS
growth rate of hemG knockout E. coli strain in presence of PPO herbicide ([2]; acifluorfen and S-3100): slower
tolerance to acifluorfen and S-3100 compared with strain containing R2N30 or R2N40 ([2]; acifluorfen and S-3100): much better
tolerance to the PPO herbicide in high-throughput screening at five weeks [3]: provided tolerance
Tolerance score to S-3100 at 5 weeks ([3]; targeting peptide TP2): 2
Tolerance score to S-3100 at 5 weeks ([3]; targeting peptide TP3): 1
Tolerance score to S-3100 at 5 weeks ([3]; targeting peptide TP4): 0
Tolerance score to S-3100 at 5 weeks ([3]; targeting peptide TP6): 0
Tolerance score to S-3100 at 5 weeks ([3]; targeting peptide TP8): 0
Tolerance score to S-3100 at 5 weeks ([3]; targeting peptide TP16): 0
Tolerance score to S-3100 at 5 weeks ([3]; targeting peptide TP21): 0
Tolerance score to S-3100 at 5 weeks ([3]; targeting peptide TP31): 1
Tolerance score to S-3100 at 5 weeks ([3]; targeting peptide TP33): 0
tolerance to the PPO herbicide, R0 plants at eleven weeks [4]: did not provide tolerance
Tolerance score to S-3100 at 11 weeks (herbicide injury rating) ([4]; targeting peptide TP2): 30%

B3: A. tuberculatus PPO: wild-type protoporphyrinogen oxidase from Amaranthus tuberculatus (WH), SEQ ID NO:80, negative control expressed in E. coli (protein, listed as Amaranthus tuberculatus)
chain: MGNISEREEPTSAKRVAVVGAGVSGLAAAYKLKSHGLSVTLFEADSRAGGKLKTVKKDGFIWDEGANTMTESEAEVSSLIDDLGLREKQQLPISQNKRYIARDGLPVLLPSNPAALLTSNILSAKSKLQIMLEPFLWRKHNATELSDEHVQESVGEFFERHFGKEFVDYVIDPFVAGTCGGDPQSLSMHHTFPEVWNIEKRFGSVFAGLIQSTLLSKKEKGGENASIKKPRVRGSFSFQGGMQTLVDTMCKQLGEDELKLQCEVLSLSYNQKGIPSLGNWSVSSMSNNTSEDQSYDAVVVTAPIRNVKEMKIMKFGNPFSLDFIPEVTYVPLSVMITAFKKDKVKRPLEGFGVLIPSKEQHNGLKTLGTLFSSMMFPDRAPSDMCLFTTFVGGSRNRKLANASTDELKQIVSSDLQQLLGTEDEPSFVNHLFWSNAFPLYGHNYDSVLRAIDKMEKDLPGFFYAGNHKGGLSVGKAMASGCKAAELVISYLDSHIYVKMDEKTA
sensitivity to PPO herbicides (negative control) ([2]; all of the PPO herbicides): sensitive to all of the PPO herbicides

B4: R1 N311: microbial HemY protoporphyrinogen oxidase, SEQ ID NO:16 (protein, listed as Bacillus atrophaeus)
chain: MSDGKKHLVIIGGGITGLASAFYMEKEIREKNLPLSVTLVEASPRVGGKIQTARKDGYIIERGPDSFLERKKSAPELVEDLGLEHLLVNNATGQSYVLVNETLHPMPKGAVMGIPTKIAPFMSTGLFSFSGKARAAMDFVLPASKPKEDQSLGEFFRRRVGDEVVENLIEPLLSGIYAGDIDRLSLMSTFPQFYQTEQKHRSLILGMKKTRPQGSGQRLTAKKQGQFQTLKTGLQTLVEELENQLKLTKVYKGTKVTNISRGEKGCSIALDNGMTLDADAAIVTSPHKSAAGMFPDLPAVSQLKDMHSTSVANVALGFPQEAVQMEHEGTGFVISRNSDFSITACTWTNKKWPHSAPEGKTLLRAYVGKAGDESIVELSDNEIIKIVLEDLKKVMKIKGEPEMTCVTRWNESMPQYHVGHKQRIKKVREALAASYPGVYMTGASFEGVGIPDCIDQGKSAVSDVLAYLFG
growth rate of hemG knockout E. coli strain in presence of PPO herbicide [2, 5]: did not grow

B5: R1N333: microbial HemY PPO, SEQ ID NO:17 in bacterial assay; truncated SEQ ID NO:21 in soybean (protein, listed as Bacillus atrophaeus)
chain: B4 chain with G125R, R218Q, G470E
growth rate of hemG knockout E. coli strain in presence of PPO herbicide [2, 5]: did not grow
tolerance to the PPO herbicide in high-throughput screening at five weeks [3]: did not provide tolerance
Tolerance score to S-3100 at 5 weeks ([3]; targeting peptide TP2): 0
Tolerance score to S-3100 at 5 weeks ([3]; targeting peptide TP3): 0
Tolerance score to S-3100 at 5 weeks ([3]; targeting peptide TP4): 0
Tolerance score to S-3100 at 5 weeks ([3]; targeting peptide TP6): 0
Tolerance score to S-3100 at 5 weeks ([3]; targeting peptide TP7): 0
Tolerance score to S-3100 at 5 weeks ([3]; targeting peptide TP8): 0
Tolerance score to S-3100 at 5 weeks ([3]; targeting peptide TP9): 1
Tolerance score to S-3100 at 5 weeks ([3]; targeting peptide TP11): 0
Tolerance score to S-3100 at 5 weeks ([3]; targeting peptide TP12): 1
Tolerance score to S-3100 at 5 weeks ([3]; targeting peptide TP13): 0
Tolerance score to S-3100 at 5 weeks ([3]; targeting peptide TP14): 0
Tolerance score to S-3100 at 5 weeks ([3]; targeting peptide TP15): 0
Tolerance score to S-3100 at 5 weeks ([3]; targeting peptide TP16): 0
Tolerance score to S-3100 at 5 weeks ([3]; targeting peptide TP17): 0
Tolerance score to S-3100 at 5 weeks ([3]; targeting peptide TP18): 0
Tolerance score to S-3100 at 5 weeks ([3]; targeting peptide TP19): 0
Tolerance score to S-3100 at 5 weeks ([3]; targeting peptide TP21): 0
Tolerance score to S-3100 at 5 weeks ([3]; targeting peptide TP22): 0
Tolerance score to S-3100 at 5 weeks ([3]; targeting peptide TP23): 1
Tolerance score to S-3100 at 5 weeks ([3]; targeting peptide TP24): 0
Tolerance score to S-3100 at 5 weeks ([3]; targeting peptide TP25): 0
Tolerance score to S-3100 at 5 weeks ([3]; targeting peptide TP26): 0
Tolerance score to S-3100 at 5 weeks ([3]; targeting peptide TP27): 1
Tolerance score to S-3100 at 5 weeks ([3]; targeting peptide TP28): 0
Tolerance score to S-3100 at 5 weeks ([3]; targeting peptide TP29): 1
Tolerance score to S-3100 at 5 weeks ([3]; targeting peptide TP30): 0
Tolerance score to S-3100 at 5 weeks ([3]; targeting peptide TP31): 1
Tolerance score to S-3100 at 5 weeks ([3]; targeting peptide TP32): 0
Tolerance score to S-3100 at 5 weeks ([3]; targeting peptide TP33): 0
Tolerance score to S-3100 at 5 weeks ([3]; targeting peptide TP34): 1
Tolerance score to S-3100 at 5 weeks ([3]; targeting peptide TP36): 1
tolerance to the PPO herbicide, R0 plants at eleven weeks [4]: did not provide tolerance
Tolerance score to S-3100 at 11 weeks (herbicide injury rating) ([4]; targeting peptide TP8): 35%
Tolerance score to S-3100 at 11 weeks (herbicide injury rating) ([4]; targeting peptide TP9): 35%
Tolerance score to S-3100 at 11 weeks (herbicide injury rating) ([4]; targeting peptide TP14): 35%
